In patent publication US9650447 (dated 2017):

Experiments:
C3d [1] = target: T1, C3d (human, UniProt P01024); experiment: ITC, two-site fit, weak site
EBV gp350 [2] = target: T2, EBV gp350 (Epstein-Barr virus, UniProt P03200); experiment: other (NMR titration, upper limit)
T2 chain: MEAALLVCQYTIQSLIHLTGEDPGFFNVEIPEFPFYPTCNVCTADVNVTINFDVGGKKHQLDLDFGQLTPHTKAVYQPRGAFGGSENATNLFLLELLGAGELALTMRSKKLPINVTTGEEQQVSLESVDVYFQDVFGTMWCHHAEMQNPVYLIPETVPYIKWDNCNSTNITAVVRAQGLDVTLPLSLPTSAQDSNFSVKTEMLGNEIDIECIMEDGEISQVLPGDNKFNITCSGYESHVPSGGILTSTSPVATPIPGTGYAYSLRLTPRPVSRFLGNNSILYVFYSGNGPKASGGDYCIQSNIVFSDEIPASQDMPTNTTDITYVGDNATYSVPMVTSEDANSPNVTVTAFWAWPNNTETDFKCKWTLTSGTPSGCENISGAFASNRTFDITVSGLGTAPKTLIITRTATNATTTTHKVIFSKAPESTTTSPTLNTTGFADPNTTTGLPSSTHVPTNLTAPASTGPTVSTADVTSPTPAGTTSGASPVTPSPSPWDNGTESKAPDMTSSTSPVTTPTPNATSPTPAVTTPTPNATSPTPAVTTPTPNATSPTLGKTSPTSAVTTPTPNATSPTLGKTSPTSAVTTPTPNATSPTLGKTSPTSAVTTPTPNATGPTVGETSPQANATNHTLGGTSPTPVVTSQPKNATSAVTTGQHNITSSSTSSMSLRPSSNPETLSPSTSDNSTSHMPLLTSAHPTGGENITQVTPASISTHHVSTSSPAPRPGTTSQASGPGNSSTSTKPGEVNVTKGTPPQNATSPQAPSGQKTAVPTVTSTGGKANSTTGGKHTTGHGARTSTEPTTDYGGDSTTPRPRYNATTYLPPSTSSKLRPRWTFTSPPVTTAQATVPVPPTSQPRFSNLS

C3d [3] = target: T1, C3d; experiment: other (NMR titration, weak site)
C3d [4] = target: T1, C3d; experiment: other (NMR titration, tight site, upper limit)
EBV gp350 [5] = target: T2, EBV gp350; experiment: ITC
C3d [6] = target: T1, C3d; experiment: ITC, two-site fit, tight site

T1 sequence (P01024 1002-1303): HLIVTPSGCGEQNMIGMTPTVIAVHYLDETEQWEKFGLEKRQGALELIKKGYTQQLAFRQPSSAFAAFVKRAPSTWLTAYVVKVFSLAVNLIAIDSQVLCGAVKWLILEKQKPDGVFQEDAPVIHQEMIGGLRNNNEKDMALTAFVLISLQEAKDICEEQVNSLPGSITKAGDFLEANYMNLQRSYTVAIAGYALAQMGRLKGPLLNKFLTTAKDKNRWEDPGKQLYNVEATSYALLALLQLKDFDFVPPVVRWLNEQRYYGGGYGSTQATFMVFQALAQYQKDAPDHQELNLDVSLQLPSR

B1: human CR2 SCR1-2 (protein)
chain: ISCGSPPPILNGRISYYSTPIAVGTVIRYSCSGTFRLIGEKSLLCITKDKVDGTWDKPAPKCEYFNKYSSCPEPIVPGGYKIRGSTPYRHGDSVTFACKTNFSMNGNKSVWCQANNMWGPTRLPTCVS
Kd (C3d [1]): 160 µM | Kd (EBV gp350 [2]): < 60 µM | Kd (C3d [3]): 130 µM | Kd (C3d [4]): < 45 µM | Kd (EBV gp350 [5]): 0.014 µM | Kd (C3d [6]): 0.13 µM
